Results: patent publication US20250002563A1

Biological target: SARS-CoV-2 spike on pseudotyped virus particles (Wuhan-Hu-1 strain) (SARS-CoV-2) (UniProt P0DTC2)
Experiment: cell-based or functional assay

Substance | IC50, pseudovirus luciferase assay [pM]
homotrimeric Nb20 | 3
homotrimeric Nb21 | 1.3
